Data on 1 protein can be found in paper PMC5695019, “Expression, Purification, and Characterization of (R)-Sulfolactate Dehydrogenase (ComC) from the Rumen Methanogen Methanobrevibacter millerae SM9” (Archaea, 2017).

Substrate in data set [1]: NC(=O)C1=CN([C@@H]2O[C@H](COP(=O)(O)OP(=O)(O)OC[C@H]3O[C@@H](n4cnc5c(N)ncnc54)[C@H](O)[C@@H]3O)[C@@H](O)[C@H]2O)C=CC1
Kind of data set: purified protein. In kind it is biochemical, Methanobrevibacter millerae. The settings on record: reduction reaction, 500 μM sulfopyruvate, 400 mM KCl, 50 mM BTP pH 6.5, 37°C, varied: cofactor.

Substrate in data set [2]: O=C(O)C(=O)CS(=O)(=O)O
Description: purified protein. The format is biochemical, Methanobrevibacter millerae. Particulars: reduction reaction, 400 μM NADH, 400 mM KCl, 50 mM BTP pH 6.5, 37°C.

The term Km denotes the concentration of substrate that gives half-maximal velocity. A word on the Vmax: it is the top rate of the reaction or transport when substrate is in excess. The kcat is the number of substrate molecules converted per active site and unit of time at saturation.

B1: ComC ((R)-sulfolactate dehydrogenase) (Methanobrevibacter millerae) (protein)
chain: MKIMKDNEIALVKEILKKLGASEEDCELVAEATIDADLKGFTSHGLGRFPQYLISIEAGTINLEDNITIEKETPAIALINGNSGFGQAVSYKAMQIAIKKAKEVGIGCVGVHNTNHFGVTGFYSDLALRENVIGMVIANTDPAIAPLGGKEALIGTNPIAIGIPSETYITVDMATSVTARGKIIESRRKGLDLPEGWALDKDGNPTTDPEAALDGGSILPFGGFKGYALALMVEILTGPLVQAGYGTGVTGTASPTKDCTKGDLYIAIDPSKFGDFGDFVANTEDFVSQVRATGETVAIPGDLEVKRIAEAEENGIEIDAKLYEQLKGICDDLDIDIDSYLED
notes: full-length, His-tagged (pET151D TOPO, E. coli Rosetta 2), tag kept, 376 residues and 40104 Da with tag; dimer (75 kDa by gel filtration); primers encode N-terminus MKIMKDNE and C-terminus DIDSYLED
For the protein B1, in the data set “purified protein [1]”, the Km turned out to be 55.1 ± 7.6 µM, the maximum rate (Vmax) is 73.1 µmol/min/mg and the kcat came to 48.9 ± 2.2 s⁻¹. In “purified protein [2]”, the Michaelis constant (Km) came to 196 ± 71 µM, the Vmax is 93.9 µmol/min/mg and the kcat came to 62.8 ± 9.7 s⁻¹.
